Assays:
[1] = biological target: T1, prostate specific membrane antigen (PSMA) on LNCaP cells (human, UniProt Q04609 1-750); experiment: ELISA on plates coated with LNCap membrane preparation
T1 construct: whole, on cells; also called LNCap membrane preparation

[2] = biological target: T1, prostate specific membrane antigen …; experiment: ELISA on plates coated with LNCap membrane preparation; purified antibody; reference J415 chimeric antibody

T1 sequence (Q04609 whole entry): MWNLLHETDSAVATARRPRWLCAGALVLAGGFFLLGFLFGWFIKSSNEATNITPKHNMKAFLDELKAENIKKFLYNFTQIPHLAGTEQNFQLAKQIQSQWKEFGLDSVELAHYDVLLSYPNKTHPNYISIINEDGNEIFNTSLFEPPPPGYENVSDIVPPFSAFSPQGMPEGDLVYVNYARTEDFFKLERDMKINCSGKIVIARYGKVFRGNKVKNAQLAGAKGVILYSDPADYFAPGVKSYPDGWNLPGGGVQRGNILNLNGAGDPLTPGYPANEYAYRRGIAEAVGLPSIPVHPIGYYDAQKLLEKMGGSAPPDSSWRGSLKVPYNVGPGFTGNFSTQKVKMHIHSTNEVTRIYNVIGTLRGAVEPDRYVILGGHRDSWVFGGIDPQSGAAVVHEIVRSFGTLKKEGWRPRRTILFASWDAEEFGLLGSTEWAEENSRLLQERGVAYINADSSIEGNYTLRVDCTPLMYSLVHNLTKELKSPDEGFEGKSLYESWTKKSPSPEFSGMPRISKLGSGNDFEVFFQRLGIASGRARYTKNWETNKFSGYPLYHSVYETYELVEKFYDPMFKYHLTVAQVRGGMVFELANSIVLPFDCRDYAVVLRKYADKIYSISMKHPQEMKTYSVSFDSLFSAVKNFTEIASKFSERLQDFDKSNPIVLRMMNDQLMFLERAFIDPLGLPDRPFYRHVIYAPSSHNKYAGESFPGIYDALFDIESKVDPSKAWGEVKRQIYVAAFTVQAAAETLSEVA

Row | Binder | binding result [1] | fold less binding than the chimeric antibody [2] [fold]
1 | deimmunized J415 heavy chain version 4 combined with deimmunized J415 light chain version 5 (antibody, V domains shown, also called DIVH4/DIVK5; J415DIVH4/J415DIVK5) VH: EVKLEESGGGLVQPGGSMKISCVASGFTFSNYWMNWVRQSPEKGLEWVAEIRSQSNNFATHYAESVKGRVIISRDDSKSSVYLQMNSLRAEDTAVYYCTRRWNNFWGQGTTVTVSS VL: NIVMTQFPKSMSASAGERMTLTCKASENVGTYVSWYQQKPTQSPKMLIYGASNRFTGVPDRFSGSGSGTDFILTISSVQAEDLVDYYCGQSYTFPYTFGGGTKLEMK | binds | 
2 | deimmunized J415 heavy chain version 1 combined with DIVK5 (antibody, V domains shown, also called J415DIVH1/J415DIVK5) VH: EVKLEESGGGLVQPGGSMKISCKASGFTFSNYWMNWVRQTPEKGLEWVALIRSQSNNFATHYAESVKGRVIISRDDSKSSVYLQMNSLRAEDTAVYYCTRRWNNFWGQGTTVTVSS VL: NIVMTQFPKSMSASAGERMTLTCKASENVGTYVSWYQQKPTQSPKMLIYGASNRFTGVPDRFSGSGSGTDFILTISSVQAEDLVDYYCGQSYTFPYTFGGGTKLEMK |  | 2

Other lines, results leading:

Row | binding result [1] | fold less binding than the chimeric antibody [2] [fold] | Binder
3 | binds |  | J415 chimeric antibody (antibody, V domains shown, Expression vectors carry human IgG1 and kappa; also called the chimeric) VH: EVKLEESGGGLVQPGGSMKLSCVASGFTFSNYWMNWVRQSPEKGLEWVAEIRSQSNNFATHYAESVKGRVIISRDDSKSSVYLQMNNLRAEDTGIYYCTRRWNNFWGQGTTLTVSS VL: NIVMTQFPKSMSISVGERVTLTCKASENVGTYVSWYQQKPEQSPKMLIYGASNRFTGVPDRFTGSGSATDFILTISSVQTEDLVDYYCGQSYTFPYTFGGGTKLEMK
4 |  | 2 | deimmunized J415 heavy chain version 2 combined with DIVK5 (antibody, V domains shown, also called J415DIVH2/J415DIVK5) VH: EVKLEESGGGLVQPGGSMKISCVASGFTFSNYWMNWVRQTPEKGLEWVALIRSQSNNFATHYAESVKGRVIISRDDSKSSVYLQMNSLRAEDTAVYYCTRRWNNFWGQGTTVTVSS VL: NIVMTQFPKSMSASAGERMTLTCKASENVGTYVSWYQQKPTQSPKMLIYGASNRFTGVPDRFSGSGSGTDFILTISSVQAEDLVDYYCGQSYTFPYTFGGGTKLEMK
